Positions count from the first letter of the chain named. Names may count otherwise. Read-outs that look alike come from different tables or passages of the source.
How the values were obtained:
AUC [1] = target: the molecule itself; assay: AUC
AUC [2] = target: the molecule itself; assay: AUC; remark: listed apart in the source

B1: wild type human Prx I (peroxiredoxin I), reduced, non-glutathionylated (enzyme, UniProt Q06830 1-199, looked up)
chain: MSSGNAKIGHPAPNFKATAVMPDGQFKDISLSDYKGKYVVFFFYPLDFTFVCPTEIIAFSDRAEEFKKLNCQVIGASVDSHFCHLAWVNTPKKQGGLGPMNIPLVSDPKRTIAQDYGVLKADEGISFRGLFIIDDKGILRQITVNDLPVGRSVDETLRLVQAFQFTDKHGEVCPAGWKPGSDTIKPDVQKSKEYFSKQK
AUC [1]
  stoichiometry N: 10

B2: human Prx I (C52S/C173S) double mutant, reduced (enzyme, UniProt Q06830 1-199, looked up)
chain: B1 chain with C52S, C173S
AUC [1]
  stoichiometry N: 10

B3: glutathionylated Prx I (C83S) mutant (enzyme, human, UniProt Q06830 1-199, looked up)
chain: B1 chain with C83S
modifications: glutathionylated by disulfide exchange with GSSG; sites not stated for this mutant
AUC [2]
  stoichiometry N: 2

— article PMC3176717 (Biochemistry, 2011)
